Test [1] deals with T1, HLA-A*02:01 on T2 cells alone (no peptide added) (human).
T1 construct: TAP-deficient T2 cells without pulsed peptide; negative control target, and the HLA molecule whose stabilisation by peptides is read in the T2 stabilization assay; also called HLA-A*02 molecule; HLA-A2 molecule
Put plainly: flow cytometry, phage on T2 without peptide. In general terms: Flow cytometry measures light scatter and fluorescence of single cells or particles in a stream.

In test [2] the target is T1, HLA-A*02:01 on T2 cells alone (no …). Put plainly: flow cytometry, phage on T2 without peptide; secondary only 320, unstained 91.4.
For test [3], the target named is T2, Foxp3-7 peptide/HLA-A*02:01 complex on the cell surface (human).
T2 construct: also called Foxp3-7/HLA-A2 complex
Put plainly: flow cytometry, phage on T2 + Foxp3-7 peptide; secondary only 318, unstained 95.8.

Test [4] addresses T3, T2+EW (Homo sapiens, UniProt A*02:01).
T3 construct: on the surface of T2 cells; irrelevant control peptide; also called EW peptide/HLA-A*02:01 complex on T2 cells; T2 pulsed with EW peptide
Put plainly: flow cytometry, phage on T2 + EW peptide; secondary only 310, unstained 93.

For test [5], the target named is T1, HLA-A*02:01 on T2 cells alone (no …). Put plainly: flow cytometry, phage on T2 cells, no peptide.
The target of test [6] is T2, Foxp3-7 peptide/HLA-A*02:01 complex on …. Kind of test: flow cytometry, phage on peptide-loaded T2 cells.
In test [7] the target is T4, 017-mut9 peptide (…)/HLA-A*02:01 complex on T2 cells (human).
T4 construct: Alanine mutant at position 9
Kind of test: flow cytometry, phage on peptide-loaded T2 cells.

Test [8] addresses T5, 017-mut1 peptide (…)/HLA-A*02:01 complex on T2 cells (human).
T5 construct: Alanine mutant of Foxp3-7 at position 1, pulsed onto T2 cells; also called EXT017-mut1
Put plainly: flow cytometry, phage on peptide-loaded T2 cells.

Test [9] has as its target T6, 017-mut2 peptide (…)/HLA-A*02:01 complex on T2 cells (human).
T6 construct: Alanine mutant at position 2, the anchor position; the peptide may load poorly onto HLA-A2; also called EXT017-mut2
Put plainly: flow cytometry, phage on peptide-loaded T2 cells.

For test [10], the target named is T7, 017-mut3 peptide (…)/HLA-A*02:01 complex on T2 cells (human).
T7 construct: Alanine mutant at position 3
Put plainly: flow cytometry, phage on peptide-loaded T2 cells.

Test [11] concerns the target T8, 017-mut5 peptide (…)/HLA-A*02:01 complex on T2 cells (human).
T8 construct: Alanine mutant at position 5
Kind of test: flow cytometry, phage on peptide-loaded T2 cells.

For test [12], the target named is T9, 017-mut7 peptide (…)/HLA-A*02:01 complex on T2 cells (human).
T9 construct: Alanine mutant at position 7
Kind of test: flow cytometry, phage on peptide-loaded T2 cells.

Test [13] concerns the target T10, 017-mut8 peptide (…)/HLA-A*02:01 complex on T2 cells (human).
T10 construct: Alanine mutant at position 8; also called TLI-A8
Put plainly: flow cytometry, phage on peptide-loaded T2 cells.

Test [14] concerns the target T2, Foxp3-7 peptide/HLA-A*02:01 complex on …. Put plainly: flow cytometry, phage on T2 + Foxp3-7 peptide; secondary only 104, unstained 81.7.
The target in test [15] is T11, R3 (RHAMM-R3) peptide/HLA-A*02:01 complex on T2 cells (human).
T11 construct: Control target of the phage staining of T2 cells; also called T2 cells pulsed with R3 peptide; RHAMM 3 (R3)
Put plainly: flow cytometry, phage on T2 + R3 peptide (as the table names the samples); secondary only 109, unstained 80.9.

The target in test [16] is T1, HLA-A*02:01 on T2 cells alone (no …). Put plainly: flow cytometry, phage on T2 cells.
The target of test [17] is T11, R3 (RHAMM-R3) peptide/HLA-A*02:01 …. Put plainly: flow cytometry, phage on T2 + R3 peptide; secondary only 123, unstained 99.8.
Test [18] concerns the target T1, HLA-A*02:01 on T2 cells alone (no …). Put plainly: flow cytometry, phage on T2 without peptide; secondary only 121, unstained 106.
The target is the same in test [19]. Put plainly: flow cytometry, phage on T2 without peptide; secondary only 100, unstained 99.5.
For test [20], the target named is T2, Foxp3-7 peptide/HLA-A*02:01 complex on …. Kind of test: flow cytometry, phage on T2 + Foxp3-7 peptide; secondary only 133, unstained 103.
Test [21] shares this target. Put plainly: flow cytometry, phage on T2 + Foxp3-7 peptide; secondary only 116, unstained 93.8.
Test [22] concerns the target T3, T2+EW. Kind of test: flow cytometry, phage on T2 + EW peptide; secondary only 113, unstained 94.7.
The target of test [23] is T12, 017-mut4 peptide (…)/HLA-A*02:01 complex on T2 cells (human).
T12 construct: Alanine mutant at position 4
Put plainly: flow cytometry, phage on peptide-loaded T2 cells.

B1: #29 (scFv)
scFv (VL-linker-VH-His/HA tag): QSVLTQPPSVSAAPRQKVTISCSGSSSNIGNNYVSWYQQLPGTAPKLLIYDDNKRPSGIPDRFSGSKSGTSATLGITGLQTGDEADYYCGTWDSSLSAVVFGGGTKLTVLGSRGGGGSGGGGSGGGGSLEMAQVQLVQSGTEVKRAGASVKVSCKASGYTFTNYYMHWVRQAPGQGLEWMGIINPSIGSTNYAQKFQGRVTMTRDTSTSTVFMELSSLRSDDTAVYYCARSFGDSDGADSWGQGTLVTVSSTSGQAGQHHHHHHGAYPYDVPDYAS
notes: also called EXT017-29; EXT017-29 scFv phage clone
As for B1, in test [1], the binding result is on record as “no binding”. Moreover, the “Median:FITC-A” value in test [2] was 369; in test [3], 1010; with T2+EW [4], 359.

B2: EXT017-54 scFv phage clone (scFv)
scFv: QAVLTQPPSLSGGPRQRVTISCSGSTSNIGKNGVSWYQQLPGKAPKLLIYNDHLLSSGVSDRFSGSKSGTSASLAISGLQSDDEADYYCATWDDTLDLPLFGGGTKVTVLGSRGGGGSGGGGSGGGGSLEMAQMQLVQSGAEVEKPGASVKLSCKASGGTFSSYAISWVRQAPGQGLEWMGGIIPIFGTANYAQKFQGRVTITADESTSTAYMELSSLRSEDTAVYYCARPSYYSIKSAWDHWGQGTLVTVSSTSGQAGQHHHHHHGAYPYDVPDYAS
notes: full-length scFv with His+HA tags; also called EXT017-54 phage
Consider B2, for which the MFI is 89.9 in [5]; 30400 in [6]; 3540 in [7]; 23500 in test [8]; 94.7 in [9]; 7780 in test [10]. The MFI in [11] worked out at 91.2; in test [12] it was 91.1; in [13] it was 5850. Further, in test [1], the binding result is on record as “no binding”. In addition, the “Median:FITC-A” value in test [2] amounted to 343; in [3], 732; with T2+EW [4], 364; in test [14], 4370; in test [15], 122.

B3: EXT017-11 scFv phage clone (scFv)
scFv: NFMLTQPHSVSESPGKTVTISCTRSSGSIASNYVQWYQQRPGSAPTTVIYEDNQRPSGVPDRFSGSIDSSSNSASLTISGLKTEDEADYYCQSYDTNNYGVIFGGGTKLTVLGSRGGGGSGGGGSGGGGSLEMAQMQLVQSGAEVKKPGASVKVSCKTSGYTFNNYYMHWVRQAPGQGLEWMGIINPSGGSTNYAQKFQGRVTMTRDTSTSTVYMELSSLRSEDTAVYYCARSFDKQDIDYWGQGTLVTVSSTSGQAGQHHHHHHGAYPYDVPDYAS
notes: also called phage clone #11
On to B3, for which the binding result in [16] was “no binding”. The “Median:FITC-A” value in test [17] turned out to be 144; in test [18], 143; in test [19], 142; in [20], 1690; in test [21] it was 454; with T2+EW [22], 143. In addition, the “Median:FITC-A” value was determined as 2620 in test [14] and 119 in [15].

B4: #34 (scFv)
scFv (VL-linker-VH-His/HA tag): QSALTQPPSASGSPGQSVTISCTGTSSDVGAYNYVSWYQHYPGKAPKLMIYEVSERPSGVPDRFSGSKSGNTASLTVSGLQAEDEADYFCSSYAGSNNFVFGTGTKVTVLGSRGGGGSGGGGSGGGGSLEMAEVQLVQSGAEVKKPGSSVKVSCKASGGTFSSYAISWVRQAPGQGLEWMGRIIPILGIANYAQKFQGRVTITADKSSSTAYMALSSLTSEDTAVYYCARGGDYVESWFDPWGQGTLVTVSSTSGQAGQHHHHHHGAYPYDVPDYAS
notes: also called EXT017-34; EXT017-34 scFv phage clone
With B4, in [1], the binding result is “no binding”. Moreover, the figures for the “Median:FITC-A” value (in [2]; in test [3]; in the test with T2+EW [4]) were 361, 1050 and 386, respectively.

B5: EXT017-32 scFv phage clone (scFv)
scFv: QSVLTQPPSVSVAPGKTARITCGGNNIGSKSVHWYQQKPGQAPVLVIYYDSDRPSGIPERFSGSNSGNTATLTISRVEAGDEADYYCQVWDSSSDHYVFGTGTKVTVLGSRGGGGSGGGGSGGGGSLEMAEVQLVESGGGVVQPGRSLRLSCAASGFTFNNHAMHWVRQAPGKGLEWVAVISFDGDDKFYADSVKGRFTISRDNSRNTLFLQMNNLRPEDTAVYYCSRDPYHFASGSYSYFDYWGQGTLVTVSSTSGQAGQHHHHHHGAYPYDVPDYAS
notes: also called EXT017-32 phage; phage clone #32
Take B5: in test [16], the binding result is reported as “no binding”. In addition, the MFI in test [5] turned out to be 91.8; in test [6], 27500; in test [7] it was 93.6; in test [8], 15100; in test [9] it was 103; in test [10] it was 21000. Moreover, the MFI came to 20800 in test [23], 2710 in [11], 99.6 in test [12] and 96.7 in test [13]. Moreover, the “Median:FITC-A” value was determined as 136 in test [17]; 138 in [18]; 356 in test [2]; 4070 in test [21]; 1640 in [3]; 357 in the test with T2+EW [4]. In addition, the “Median:FITC-A” value is 3840 in [14] and 123 in test [15].

B6: #55 (scFv)
scFv (VL-linker-VH-His/HA tag): QSALTQPASVSGSPGQSITISCTGPTSDFNDYLFVSWYQQHPGKAPKLILYDVTHRPSGVSGRFSGSKSASTASLTISGLQAEDEADYFCGSKTGRTTYVFGTGTKVTVLGSRGGGGSGGGGSGGGGSLEMAQVQLVQSGAEVKKPGASVKVSCKASGYTFDNFGISWVRQAPGQGLEWMGWINTYDGYTNYVEKLQGRVTMTTDTSTGTAYMELRGLRSDDTAVYYCARSVPHQISYGDLWGQGTLVTVSSTSGQAGQHHHHHHGAYPYDVPDYAS
notes: also called EXT017-55; EXT017-55 scFv phage clone
Consider B6, for which the binding result in test [1] was “no binding”. Further, the entries for the “Median:FITC-A” value (in [2]; with T2+EW [4]) were 389 and 391, respectively.

B7: EXT017-21 scFv phage clone (scFv)
scFv: SYELTQPPSVSVAPGQTASMTCGGNNIGSKSVHWYQQKPSQAPVMVVHDDSERPSGIPERISGSKSGNTATLTISRVEAGDEADYYCQVWDSSSDHVIFGGGTKLTVLGSRGGGGSGGGGSGGGGSLEMAQVQLVQSGAEVKKPGASVKVSCKASGYTFTNYYIHWVRQAPGQGLEWMGIIRPSGGITNYAQKFQGRVSMTRDTSTSTVYMELSSLRSEDTAVYYCARSWMSDSYYDGWGQGTLVTVSSTSGQAGQHHHHHHGAYPYDVPDYAS
notes: also called phage clone #21
Take B7: the binding result in [16] is listed as “no binding”. Besides, the “Median:FITC-A” value worked out at 143 in [17]; 147 in test [18]; 138 in test [19]; 1550 in test [20]; 428 in test [21]; 143 with T2+EW [22]. Further, the “Median:FITC-A” value in [14] was determined as 2220; in test [15], 123.

B8: #25 (scFv)
scFv (VL-linker-VH-His/HA tag): QSVLTQPPSVSAAPGQKVTISCSGSSSNIGNNYVSWYQFLPGTAPKLLIYDNNQRPSGIPDRFSGFKSGTSATLDITGLQTGDEADYYCGTWDNSLSAAVFGRGTKLTVLGSRGGGGSGGGGSGGGGSLEMAQMQLVQSGTEVKRAGASVKVSCKASGYTFTNYYMHWVRQAPGQGLEWMGIINPSGGSTTYAQKFQGRVTMTRDTSTSTVYMELSDLGSEDTAVYYCARSWSKTEGSDRWGQGTLVTVSSTSGQAGQHHHHHHGAYPYDVPDYAS
notes: also called EXT017-25; EXT017-25 scFv phage clone
In the case of B8, the binding result in test [1] is “no binding”. The “Median:FITC-A” value in test [2] was found to be 386; in test [3], 1030; with T2+EW [4], 375.

Values taken from patent publication US20190284262A1 (Memorial Sloan Kettering, published 2019).
